Test results taken from patent publication US20050202440A1.

Target: androgen receptor ligand binding domain (AR LBD) bound with DHT (chimp construct; LBD sequence stated identical to human)
Test: X-ray cocrystal structure; surface area buried from both molecules on binding

androgen receptor ligand binding domain (AR LBD) bound with DHT (chimp construct; LBD sequence stated identical to human), sequence (P10275 whole entry, the tested form may be a part): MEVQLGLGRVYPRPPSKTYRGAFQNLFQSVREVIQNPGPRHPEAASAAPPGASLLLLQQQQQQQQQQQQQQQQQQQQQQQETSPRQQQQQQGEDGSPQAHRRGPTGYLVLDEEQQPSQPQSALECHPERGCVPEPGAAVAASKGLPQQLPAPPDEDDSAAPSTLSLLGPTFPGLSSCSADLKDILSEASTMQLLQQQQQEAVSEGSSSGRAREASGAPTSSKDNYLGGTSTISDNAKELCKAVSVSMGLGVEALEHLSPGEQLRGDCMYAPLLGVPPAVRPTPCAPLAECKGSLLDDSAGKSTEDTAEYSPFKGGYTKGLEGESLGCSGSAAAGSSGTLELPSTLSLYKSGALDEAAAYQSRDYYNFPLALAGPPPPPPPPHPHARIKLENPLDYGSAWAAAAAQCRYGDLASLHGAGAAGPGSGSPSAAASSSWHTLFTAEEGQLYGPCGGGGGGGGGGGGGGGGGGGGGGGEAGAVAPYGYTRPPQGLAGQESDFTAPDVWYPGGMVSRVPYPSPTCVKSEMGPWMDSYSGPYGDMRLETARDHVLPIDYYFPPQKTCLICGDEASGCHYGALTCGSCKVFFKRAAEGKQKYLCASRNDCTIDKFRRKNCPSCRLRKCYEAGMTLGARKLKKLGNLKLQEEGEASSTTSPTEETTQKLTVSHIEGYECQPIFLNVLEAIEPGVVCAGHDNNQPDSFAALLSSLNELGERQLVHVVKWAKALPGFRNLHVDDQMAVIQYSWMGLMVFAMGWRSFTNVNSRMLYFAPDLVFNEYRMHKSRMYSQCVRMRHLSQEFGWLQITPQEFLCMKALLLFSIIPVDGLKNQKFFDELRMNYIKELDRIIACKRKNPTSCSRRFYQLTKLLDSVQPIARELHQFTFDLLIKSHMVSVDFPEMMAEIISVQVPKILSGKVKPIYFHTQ

**Q.** How did the buried surface area turn out when SSRFESLFAGEKESR [coactivator-related peptide CRP-3] was run?
**A.** Its buried surface area is 1020 A^2.

**Q.** With SSRGLLWDLLTKDSR [coactivator-related peptide CRP-1] as the binder, how does the buried surface area read?
**A.** Its buried surface area is 987 A^2.

**Q.** SSKFAALWDPPKLSR [coactivator-related peptide CRP-4] was tested. Which buried surface area did it give?
**A.** Its buried surface area is 930 Å^2.

**Q.** With SRWQALFDDGTDTSR [coactivator-related peptide CRP-2] as the binder, how does the buried surface area read?
**A.** Its buried surface area is 963 Å^2.

**Q.** How did the buried surface area turn out when SRWAEVWDDNSKVSR [coactivator-related peptide CRP-7] was run?
**A.** The buried surface area was 882 Å^2.

**Q.** How did the buried surface area turn out when SRFADFFRNEGLSGSR [coactivator-related peptide CRP-5] was run?
**A.** The buried surface area was 920 Å^2.

**Q.** For SSNTPRFKEYFMQSR [coactivator-related peptide CRP-6], which buried surface area is on record?
**A.** Its buried surface area is 1230 Å^2.
